Target: Recombinant human IL-17A (Sino Biological, 12047-HNAS) (human) (UniProt Q16552)
Test: indirect ELISA, human IL-17A coated (Table 7, not in this copy)

Recombinant human IL-17A (Sino Biological, 12047-HNAS) (human), sequence (Q16552 24-155): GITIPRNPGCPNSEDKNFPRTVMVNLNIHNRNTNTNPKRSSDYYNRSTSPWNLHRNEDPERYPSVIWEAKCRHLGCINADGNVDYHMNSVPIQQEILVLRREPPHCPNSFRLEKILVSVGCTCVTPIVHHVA

- EC50 ratio to the humanized antibody: 3 fold
B1: 杂交瘤14F10/9F6产生的鼠源抗体 (antibody, V domains shown)
VH: QVQLQQSGPEVVRPGVSVKISCKGSGYTFTDYAMHWVKQSHAKSLEWIGVIGPYNDNTNYNQKFKGKATMTVDKSSSTAYMEIARLTSEDSAIYYCARGERYFDYWGQGTTLTVSS
VL: DIQMTQSSSYLSVSLGGRVTITCRASDHINNWLAWYQQKPGNAPRLLIYGATSLETGVPSRFSGSGSGKDYTLSITSLQTEDVATYYCQQYWTIPLTFGAGTKLELK

Source: patent publication CN107522783A
